Assay results as given in paper PMC11601596.

How the values were obtained:
[1] = target: Citrobacter sp. RHBSTW-00271 BubCD (JAB/JAMM family peptidase-E1 fusion), wild type (Citrobacter sp. RHBSTW-00271); assay: crystal structure
[2] = target: Citrobacter sp. RHBSTW-00271 BubCD D104A peptidase domain mutant (Citrobacter sp. RHBSTW-00271); assay: crystal structure

Citrobacter sp. RHBSTW-00271 BubCD (JAB/JAMM family peptidase-E1 fusion), wild type (enzyme)
stoichiometry N [1]: 2

Citrobacter sp. RHBSTW-00271 BubCD D104A peptidase domain mutant (enzyme)
stoichiometry N [2]: 2
